The values below come from publication PMC8939767 (2022).

Common to all, as to assay: BLI
On the technique in general: Biolayer interferometry detects binding as a change in optical thickness at a sensor tip.

Experiment [1] addresses SARS-CoV-1 soluble spike protein.
The target of experiment [2] is SARS-CoV-2 soluble spike protein.
Experiment [3] deals with HCoV-OC43 soluble spike protein.
For experiment [4], the target named is T1, HCoV-HKU1 soluble spike ectodomain protein (HCoV-HKU1, UniProt Q5MQD0 13-1300).
T1 chain: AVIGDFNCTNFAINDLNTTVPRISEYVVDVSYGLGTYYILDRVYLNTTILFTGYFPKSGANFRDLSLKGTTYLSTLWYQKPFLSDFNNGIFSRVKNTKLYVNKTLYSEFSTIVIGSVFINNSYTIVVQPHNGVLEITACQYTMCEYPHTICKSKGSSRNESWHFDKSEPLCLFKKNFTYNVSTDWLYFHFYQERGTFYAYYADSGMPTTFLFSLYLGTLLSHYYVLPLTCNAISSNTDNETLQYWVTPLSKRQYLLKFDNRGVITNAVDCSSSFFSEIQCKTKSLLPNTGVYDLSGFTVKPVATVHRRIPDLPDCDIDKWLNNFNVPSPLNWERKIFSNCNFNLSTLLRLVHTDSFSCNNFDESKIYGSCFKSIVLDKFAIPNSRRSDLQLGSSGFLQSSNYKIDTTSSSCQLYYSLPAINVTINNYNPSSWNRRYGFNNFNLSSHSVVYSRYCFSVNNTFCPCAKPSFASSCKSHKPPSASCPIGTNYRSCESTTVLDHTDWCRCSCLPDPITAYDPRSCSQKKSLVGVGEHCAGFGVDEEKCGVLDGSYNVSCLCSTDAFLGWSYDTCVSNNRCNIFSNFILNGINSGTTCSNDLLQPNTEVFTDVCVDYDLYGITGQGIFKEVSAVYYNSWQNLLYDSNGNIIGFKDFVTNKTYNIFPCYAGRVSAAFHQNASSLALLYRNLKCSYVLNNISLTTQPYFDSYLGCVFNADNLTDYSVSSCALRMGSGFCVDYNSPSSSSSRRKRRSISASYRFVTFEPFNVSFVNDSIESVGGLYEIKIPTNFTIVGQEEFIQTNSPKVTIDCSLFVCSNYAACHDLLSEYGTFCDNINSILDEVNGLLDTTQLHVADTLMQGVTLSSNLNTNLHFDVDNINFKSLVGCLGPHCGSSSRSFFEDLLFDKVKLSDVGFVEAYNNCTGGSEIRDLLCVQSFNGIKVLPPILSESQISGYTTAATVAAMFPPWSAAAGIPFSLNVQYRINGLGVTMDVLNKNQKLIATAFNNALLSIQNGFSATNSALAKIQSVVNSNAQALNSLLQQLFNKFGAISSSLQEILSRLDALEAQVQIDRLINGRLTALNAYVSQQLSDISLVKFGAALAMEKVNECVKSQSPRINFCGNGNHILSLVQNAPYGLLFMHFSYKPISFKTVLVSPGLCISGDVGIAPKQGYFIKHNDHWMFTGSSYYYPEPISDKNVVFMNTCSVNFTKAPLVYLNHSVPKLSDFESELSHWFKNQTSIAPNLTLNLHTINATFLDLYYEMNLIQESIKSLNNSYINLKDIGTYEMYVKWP

B1: CC40.8 broadly neutralizing antibody (IgG) (antibody, V domains shown)
VH: EVQLLESGGGLVQPGGSLRLSCAASGFTFSSYVMTWARQAPGKGLEWVSAISGTGYTYYADSVKGRFTVSRDNSKNTLFLQMSSLRAEDTAVYYCAITMAPVVWGQGTTVTVSS
VL: SYELTQPPSVSVSPGQTARITCSGDALPKRYAYWYQQKSGQAPILVIYEDKKRPSGIPERLSGSKSGTVATLTISGAQVEDEADYYCYSTDSSGNHAVFGGGTQLTVL
Broadly, the Kd is the equilibrium constant for the complex coming apart. Low readings indicate higher affinity, high ones lower affinity. Consider B1, for which the Kd in experiment [1] was under 1 pM; in experiment [2], under 1 pM; in experiment [3] it was about 10000 pM; in experiment [4], under 1 pM.
